This passage reports activity (1-depletion score) results from patent US20240425885.

Assay in all cases: cleavage_in_vitro
The subject of data set [1] is T1, OMNI-93 (metagenomic, unknown).
T1 sequence: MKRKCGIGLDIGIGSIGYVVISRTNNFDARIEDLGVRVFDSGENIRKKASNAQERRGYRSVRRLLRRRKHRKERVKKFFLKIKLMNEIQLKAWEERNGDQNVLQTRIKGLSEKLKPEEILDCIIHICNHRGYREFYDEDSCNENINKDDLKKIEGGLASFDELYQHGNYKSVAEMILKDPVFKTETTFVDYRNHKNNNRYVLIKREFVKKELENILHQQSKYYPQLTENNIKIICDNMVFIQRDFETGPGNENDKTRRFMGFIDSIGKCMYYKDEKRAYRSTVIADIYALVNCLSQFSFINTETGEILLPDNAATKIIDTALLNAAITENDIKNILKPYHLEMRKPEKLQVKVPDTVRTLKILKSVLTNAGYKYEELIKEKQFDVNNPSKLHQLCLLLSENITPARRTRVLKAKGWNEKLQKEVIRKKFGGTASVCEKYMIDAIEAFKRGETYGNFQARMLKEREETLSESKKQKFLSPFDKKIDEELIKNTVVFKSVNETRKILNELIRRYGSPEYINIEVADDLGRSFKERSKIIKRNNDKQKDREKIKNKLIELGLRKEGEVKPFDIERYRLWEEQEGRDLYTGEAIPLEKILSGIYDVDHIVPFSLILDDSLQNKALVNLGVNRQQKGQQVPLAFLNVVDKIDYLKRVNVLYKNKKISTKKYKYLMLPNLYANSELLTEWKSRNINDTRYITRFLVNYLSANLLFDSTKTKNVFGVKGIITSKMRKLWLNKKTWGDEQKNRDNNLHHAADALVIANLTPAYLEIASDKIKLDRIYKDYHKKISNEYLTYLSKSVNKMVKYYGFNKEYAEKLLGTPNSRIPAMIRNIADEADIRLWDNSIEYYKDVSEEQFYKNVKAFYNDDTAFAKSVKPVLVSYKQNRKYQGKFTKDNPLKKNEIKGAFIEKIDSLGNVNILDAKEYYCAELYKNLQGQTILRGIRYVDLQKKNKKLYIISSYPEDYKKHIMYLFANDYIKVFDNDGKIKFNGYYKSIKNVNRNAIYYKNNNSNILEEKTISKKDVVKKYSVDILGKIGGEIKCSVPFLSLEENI
To be noted: TXTL.

Data set [2] has as its system T2, OMNI-98 (metagenomic, unknown).
T2 sequence: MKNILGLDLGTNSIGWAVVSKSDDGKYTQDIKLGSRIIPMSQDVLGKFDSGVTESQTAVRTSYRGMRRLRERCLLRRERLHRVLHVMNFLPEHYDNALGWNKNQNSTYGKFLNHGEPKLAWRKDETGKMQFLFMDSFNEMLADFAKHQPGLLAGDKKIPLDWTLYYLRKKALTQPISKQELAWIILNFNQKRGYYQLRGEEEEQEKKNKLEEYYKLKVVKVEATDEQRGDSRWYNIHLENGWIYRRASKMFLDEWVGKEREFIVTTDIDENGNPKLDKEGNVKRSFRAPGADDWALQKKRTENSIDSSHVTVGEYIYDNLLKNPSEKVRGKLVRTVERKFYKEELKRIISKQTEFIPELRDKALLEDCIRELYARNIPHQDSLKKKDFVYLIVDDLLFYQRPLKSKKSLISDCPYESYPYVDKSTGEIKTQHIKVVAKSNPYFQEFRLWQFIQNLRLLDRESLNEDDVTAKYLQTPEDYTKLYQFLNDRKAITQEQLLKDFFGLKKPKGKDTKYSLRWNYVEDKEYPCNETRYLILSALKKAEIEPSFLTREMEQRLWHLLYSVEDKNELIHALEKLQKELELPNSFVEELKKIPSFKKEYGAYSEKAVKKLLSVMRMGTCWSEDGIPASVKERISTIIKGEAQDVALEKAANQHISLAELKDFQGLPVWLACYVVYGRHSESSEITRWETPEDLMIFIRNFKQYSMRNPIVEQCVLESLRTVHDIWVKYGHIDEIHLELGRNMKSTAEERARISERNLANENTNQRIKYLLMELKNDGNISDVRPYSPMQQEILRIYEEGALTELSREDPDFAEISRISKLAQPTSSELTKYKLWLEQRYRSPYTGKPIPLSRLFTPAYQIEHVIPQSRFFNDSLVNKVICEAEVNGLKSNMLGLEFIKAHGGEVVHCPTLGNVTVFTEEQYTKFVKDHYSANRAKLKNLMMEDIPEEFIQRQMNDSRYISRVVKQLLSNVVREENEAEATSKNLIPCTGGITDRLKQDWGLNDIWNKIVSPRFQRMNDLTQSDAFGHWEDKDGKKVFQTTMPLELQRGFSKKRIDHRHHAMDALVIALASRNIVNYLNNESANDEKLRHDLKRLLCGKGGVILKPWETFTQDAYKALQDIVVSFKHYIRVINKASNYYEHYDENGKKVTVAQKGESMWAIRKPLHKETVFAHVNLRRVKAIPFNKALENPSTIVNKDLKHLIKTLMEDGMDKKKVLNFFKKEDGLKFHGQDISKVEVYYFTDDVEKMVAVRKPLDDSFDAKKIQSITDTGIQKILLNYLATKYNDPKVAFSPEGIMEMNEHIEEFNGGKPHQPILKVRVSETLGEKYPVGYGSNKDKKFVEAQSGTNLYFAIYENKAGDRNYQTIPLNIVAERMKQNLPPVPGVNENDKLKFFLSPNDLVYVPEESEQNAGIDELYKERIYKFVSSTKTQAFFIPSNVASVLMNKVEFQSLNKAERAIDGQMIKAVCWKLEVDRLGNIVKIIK
To be noted: TXTL; PAM NNAAATNN

The test system of data set [3] is T3, OMNI-132 (metagenomic, unknown).
T3 sequence: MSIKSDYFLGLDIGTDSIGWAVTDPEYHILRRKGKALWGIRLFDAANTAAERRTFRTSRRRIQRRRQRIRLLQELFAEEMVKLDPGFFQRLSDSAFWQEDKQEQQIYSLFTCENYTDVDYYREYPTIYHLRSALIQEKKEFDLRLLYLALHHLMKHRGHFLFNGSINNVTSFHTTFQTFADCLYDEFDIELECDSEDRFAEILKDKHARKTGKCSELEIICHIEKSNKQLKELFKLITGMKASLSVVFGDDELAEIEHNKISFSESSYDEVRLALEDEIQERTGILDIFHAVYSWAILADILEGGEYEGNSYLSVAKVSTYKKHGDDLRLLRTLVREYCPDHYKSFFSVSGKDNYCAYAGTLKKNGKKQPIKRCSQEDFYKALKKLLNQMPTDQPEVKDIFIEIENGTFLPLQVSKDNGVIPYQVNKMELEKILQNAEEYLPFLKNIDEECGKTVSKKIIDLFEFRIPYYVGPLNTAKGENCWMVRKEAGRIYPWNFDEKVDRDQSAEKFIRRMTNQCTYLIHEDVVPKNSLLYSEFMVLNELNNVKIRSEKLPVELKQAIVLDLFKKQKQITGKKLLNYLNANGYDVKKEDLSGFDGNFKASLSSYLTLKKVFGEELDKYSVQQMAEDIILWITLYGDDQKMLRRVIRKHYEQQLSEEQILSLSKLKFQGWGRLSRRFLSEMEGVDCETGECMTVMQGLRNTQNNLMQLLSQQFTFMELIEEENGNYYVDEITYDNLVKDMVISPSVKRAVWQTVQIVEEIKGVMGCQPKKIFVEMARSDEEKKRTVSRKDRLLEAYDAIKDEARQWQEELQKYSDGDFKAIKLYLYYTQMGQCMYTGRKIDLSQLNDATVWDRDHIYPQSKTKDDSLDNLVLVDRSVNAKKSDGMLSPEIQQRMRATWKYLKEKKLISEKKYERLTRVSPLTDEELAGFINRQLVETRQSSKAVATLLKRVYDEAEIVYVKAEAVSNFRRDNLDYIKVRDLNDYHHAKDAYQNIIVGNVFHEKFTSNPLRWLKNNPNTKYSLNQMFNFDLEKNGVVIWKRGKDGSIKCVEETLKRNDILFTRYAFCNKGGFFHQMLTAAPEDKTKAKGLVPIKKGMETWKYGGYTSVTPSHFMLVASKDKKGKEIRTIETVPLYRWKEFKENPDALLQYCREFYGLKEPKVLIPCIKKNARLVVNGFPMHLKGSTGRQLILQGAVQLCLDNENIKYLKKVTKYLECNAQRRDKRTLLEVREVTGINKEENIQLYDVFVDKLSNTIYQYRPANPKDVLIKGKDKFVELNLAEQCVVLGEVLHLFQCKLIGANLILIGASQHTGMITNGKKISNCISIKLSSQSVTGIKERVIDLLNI
To be noted: TXTL; PAM NNAAATNN

For data set [4], the system named is T4, OMNI-96 (metagenomic, unknown).
T4 sequence: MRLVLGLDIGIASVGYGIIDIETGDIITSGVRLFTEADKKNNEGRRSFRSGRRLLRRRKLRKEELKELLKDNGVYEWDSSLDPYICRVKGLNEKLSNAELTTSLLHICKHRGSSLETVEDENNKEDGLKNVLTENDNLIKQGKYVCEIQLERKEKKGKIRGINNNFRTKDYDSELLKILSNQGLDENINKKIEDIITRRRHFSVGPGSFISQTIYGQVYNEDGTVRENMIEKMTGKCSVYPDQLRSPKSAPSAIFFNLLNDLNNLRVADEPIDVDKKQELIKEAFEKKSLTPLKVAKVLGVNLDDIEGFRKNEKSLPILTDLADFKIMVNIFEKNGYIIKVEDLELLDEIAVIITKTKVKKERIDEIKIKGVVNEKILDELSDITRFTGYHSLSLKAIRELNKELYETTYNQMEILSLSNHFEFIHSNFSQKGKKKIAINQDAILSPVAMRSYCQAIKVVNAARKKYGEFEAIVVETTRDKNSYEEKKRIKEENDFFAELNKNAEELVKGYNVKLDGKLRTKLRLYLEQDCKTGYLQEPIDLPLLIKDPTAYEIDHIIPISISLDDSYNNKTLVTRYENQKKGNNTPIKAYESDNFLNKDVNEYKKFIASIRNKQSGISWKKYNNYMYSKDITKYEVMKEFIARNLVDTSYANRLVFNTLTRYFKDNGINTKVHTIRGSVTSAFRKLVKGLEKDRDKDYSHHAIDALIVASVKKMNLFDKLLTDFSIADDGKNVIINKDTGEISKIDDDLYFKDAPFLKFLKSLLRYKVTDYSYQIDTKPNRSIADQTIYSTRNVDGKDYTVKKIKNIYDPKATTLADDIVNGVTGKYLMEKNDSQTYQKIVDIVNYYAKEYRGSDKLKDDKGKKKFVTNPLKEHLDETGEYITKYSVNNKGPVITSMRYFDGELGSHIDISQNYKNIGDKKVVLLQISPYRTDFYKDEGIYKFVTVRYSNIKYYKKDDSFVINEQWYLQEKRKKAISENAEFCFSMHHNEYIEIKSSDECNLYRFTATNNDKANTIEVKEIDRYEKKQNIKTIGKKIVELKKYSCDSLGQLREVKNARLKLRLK
To be noted: TXTL; PAM NYAAGNNN

Consider “GGAAGAGCAGAGCCUUGGUCUCGUCUUAGUACUCUGUUGGAAACAACAAUAGUUCUAAGAUAAGGCUAUUUAUGCCGUAGGGUAUGGUGGUAUCCCUUUAAUCCACCUUUAAGCCAUUGCUUAUGCAAUGGCUUAUCUAUAUUUUUU / GGAAGAGCAGAGCCTTGGTCTCNNNNNNNN / NNNNNNNNGAGACCAAGGCTCTGCTCTTCC [T2 sgRNA 4 V2 ; T2 protospacer + 8N PAM library (pbPOS T2)]”, for which the activity (1-depletion score) in data set [1] (PAM NNGGGGNN) is 0.97.
Regarding “GGAAGAGCAGAGCCUUGGUCUCGUUGUGAAUUGCUUUCGAAAGAAAGCAAUUCACAAUAAGGAUUAUUCCGUUGUGAAAACAUUUAGGACGGGGCAACUCGUCCUUUGUUUUUUU / GGAAGAGCAGAGCCTTGGTCTCNNNNNNNN / NNNNNNNNGAGACCAAGGCTCTGCTCTTCC [T2 sgRNA 9 V1 ; T2 protospacer + 8N PAM library (pbPOS T2)]”, the activity (1-depletion score) in data set [2] was determined as 0.93.
In turn, “GGAAGAGCAGAGCCUUGGUCUCGUUUGAGAGUAGUGUAAGAAAUUACACUACAAGUUCAAAUAAAAAUUUAUUCAAAUCCAUUUGCUACAUUGUGUAGAAUUUAAAGAUCUGGCAACAGAUCUUUUUUU / GGAAGAGCAGAGCCTTGGTCTCNNNNNNNN / NNNNNNNNGAGACCAAGGCTCTGCTCTTCC [T2 sgRNA 12 V2 ; T2 protospacer + 8N PAM library (pbPOS T2)]” gave an activity (1-depletion score) in data set [3] of 0.97.
Same read-out and setting: next, “GGAAGAGCAGAGCCUUGGUCUCGUUUGAGAGUAGUGUAAGAAAUUACACUACAAGUUCAAAUAAAAAUUUAUUCAAAUCCUUUUGCUACAUUGUGUAGAAUUUAAAGAUCUGGCAACAGAUCUUUUUUAUUUUUU / GGAAGAGCAGAGCCTTGGTCTCNNNNNNNN / NNNNNNNNGAGACCAAGGCTCTGCTCTTCC [T2 sgRNA 32 V1 ; T2 protospacer + 8N PAM library (pbPOS T2)]”: 0.97.
Turning to “GGAAGAGCAGAGCCUUGGUCUCGUUUUAGUACUCUGUUGGAAACAACAAUAGUUCUAAGAUAAGGCUAUUUAUGCCGUAGGGUAUGGUGGUAUCCCUUUAAUCCACCUUUAAGCCAUUGCUUAUGCAAUGGCUUAUCUAUAUUUUUU / GGAAGAGCAGAGCCTTGGTCTCNNNNNNNN / NNNNNNNNGAGACCAAGGCTCTGCTCTTCC [T2 sgRNA 4 V1 ; T2 protospacer + 8N PAM library (pbPOS T2)]”, in data set [1] (PAM NNGGGGNN (specific NNRGGDNN)), the activity (1-depletion score) was 0.99.
Take “GGAAGAGCAGAGCCUUGGUCUCGUUUUGCUACCCUAAAUUAGAAAAAUAUUAGGACCUAGCAAAACAAGGCUUUAUGCCGAAAUCGGAGUCGACGGGCUCCUUUUUU / GGAAGAGCAGAGCCTTGGTCTCNNNNNNNN / NNNNNNNNGAGACCAAGGCTCTGCTCTTCC [T2 sgRNA 7 V1 ; T2 protospacer + 8N PAM library (pbPOS T2)]”: the activity (1-depletion score) in data set [4] was 0.57.
